Ends that are not written are not given here.
Experiments:
[1] = biological target: T1, extracellular domain (ECD) of IL-2Rβ (Homo sapiens, UniProt P14784); assay: competitive binding of synthetic peptides against phage clones on IL-2Rβ; details: for competition with phage clone peptide SEQ ID NO: 58: phage family 1; for competition with phage clone peptide SEQ ID NO: 170: phage family 2A; for competition with phage clone peptide SEQ ID NO: 83: phage family 2B; for competition with phage clone peptide SEQ ID NO: 1034: phage family 2C; for competition with phage clone peptide SEQ ID NO: 1044: phage family 4
T1 construct: Fc; purchased ACRObiosystems, Inc. ILB-H5253
T1 sequence (P14784 27-239): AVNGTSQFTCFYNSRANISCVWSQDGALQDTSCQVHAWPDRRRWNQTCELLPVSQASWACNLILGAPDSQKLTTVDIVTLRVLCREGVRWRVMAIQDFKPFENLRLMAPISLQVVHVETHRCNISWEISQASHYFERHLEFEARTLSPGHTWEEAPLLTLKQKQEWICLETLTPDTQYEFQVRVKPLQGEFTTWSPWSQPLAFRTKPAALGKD
Procedure: (§1) Representative phage clones displaying peptides from IL-2Rβ ligand families were bound to the extracellular domain (ECD) of IL-2Rβ immobilized in microtiter wells. Phage binding was conducted in the presence and absence of synthetic test peptides to determine if phage peptides and test peptides competed for binding to the same sites on IL-2Rβ . Synthetic test peptides were selected to represent peptides from IL-2Rβ ligand families, as well positive and negative control peptides.
(§2) Phage binding to the immobilized IL-2Rβ ECD was detected by staining with antibody against phage coat proteins (anti-phage Ab), staining with labeled secondary antibody against the anti-phage Ab, and scored by reading OD in the microtiter plate optical reader.
(§3) The ELISA signal for each phage binding in the presence and absence of the test peptides was compared to determine which synthetic peptides competed with which phage peptides for binding to the IL-2Rβ subunit.

IL-2Rγc subunit = biological target: T2, IL-2Rγc subunit (Homo sapiens, UniProt P31785); assay: competitive binding of synthetic peptides against phage clones on IL-2Rγc; details: for competition with phage clone peptide SEQ ID NO 198: phage family 1A; for competition with phage clone peptide SEQ ID NO 224: phage family 1B; for competition with phage clone peptide SEQ ID NO 236: phage family 2; for competition with phage clone peptide SEQ ID NO 248: phage family 3; for competition with phage clone peptide SEQ ID NO 266: phage family 4; for competition with phage clone peptide SEQ ID NO 948: phage family 5
T2 construct: Fc; purchased ACRObiosystems, Inc. ILG-H5256
T2 sequence (P31785 23-254): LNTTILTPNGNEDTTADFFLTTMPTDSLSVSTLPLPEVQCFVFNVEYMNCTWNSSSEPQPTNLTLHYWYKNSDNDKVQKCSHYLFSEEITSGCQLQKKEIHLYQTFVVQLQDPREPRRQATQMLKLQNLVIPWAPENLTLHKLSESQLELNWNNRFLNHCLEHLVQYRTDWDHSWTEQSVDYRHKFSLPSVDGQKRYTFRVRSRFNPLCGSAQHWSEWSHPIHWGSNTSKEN
Procedure: as §1, §2, §3
A similar study was performed to evaluate the binding of IL-2Rγc ligands.

NK-92 cells = assay: STAT5 phosphorylation in NK-92 cells; assay type: cell-based, human; details: NK-92 cells, 10, 1, 0.1 μM, 30 min
Procedure: NK-92 cells were seeded in a 24-well plate at 4×10^5 cells, in 1 mL starvation medium (SM), and incubated overnight at 37° C., 5% CO2. The starvation medium contained RPMI 1640+20% FBS+2 mM L-glutamine+1 mM NaPyr+10 mM HEPES+0.1 mM BME (no rhIL-2 supplement).
Treatment mixtures were of 1 μg/mL Anti-hIL-2 neutralizing antibody (0.2 mg/mL stock) or goat IgG control (1 mg/mL stock) were prepared.
The treatment mixtures and the antibody mix were added to the cells for 30 min at 37° C., 5% CO2. Each sample was then transferred to a 1.5 mL microfuge tube and spun down at 1,500 RPM for 5 minutes. The cells were washed in 1 mL PBS and centrifuged again.
A phosphatase and protease inhibitor cocktail (Thermo #78442) were added to mPER buffer at a 1:100 dilution. After the cells were pelleted, 50 μL of mPER buffer was added to each sample and pipetted repeatedly to homogenize.
The lysates were centrifuged at 14,000 RPM for 5 min at RT. The supernatants were transferred to clean tubes and stored frozen at −80° C.
The treatment reagents included Anti-STAT5 Antibody (rabbit), Cell Signaling No. 94205S; Anti-pSTAT5 Antibody (rabbit), Cell Signaling No. 4322S; and Goat anti-rabbit IgG-HRP, Jackson Immunoresearch No. 111-035-144.

Substance | competition with phage clone peptide SEQ ID NO: 58 [1] | competition with phage clone peptide SEQ ID NO: 170 [1] | competition with phage clone peptide SEQ ID NO: 83 [1] | competition with phage clone peptide SEQ ID NO: 1034 [1] | competition with phage clone peptide SEQ ID NO: 1044 [1] | competition with phage clone peptide SEQ ID NO 198 (IL-2Rγc subunit) | competition with phage clone peptide SEQ ID NO 224 (IL-2Rγc subunit) | competition with phage clone peptide SEQ ID NO 236 (IL-2Rγc subunit) | competition with phage clone peptide SEQ ID NO 248 (IL-2Rγc subunit) | competition with phage clone peptide SEQ ID NO 266 (IL-2Rγc subunit) | competition with phage clone peptide SEQ ID NO 948 (IL-2Rγc subunit) | also measured
58 (YDCRIAQVGELCDL) [Peptide 58] | +^1 (Peptide competes with phage binding.) | + (Peptide competes with phage binding.) | + (Peptide competes with phage binding.) | + (Peptide competes with phage binding.) | − | − | − | − | − | − | − | 
58 (YDCRIAQVGELCDL) [compound 58] |  |  |  |  |  |  |  |  |  |  |  | competition for binding to the IL-2Rγc binding site with the group of IL-2Rγc ligands (IL-2Rγc subunit): does not compete
169 (NMCLVGDYWPSCQI) [Peptide 169] | + (Peptide competes with phage binding.) | + (Peptide competes with phage binding.) | + (Peptide competes with phage binding.) | + (Peptide competes with phage binding.) | − |  |  |  |  |  |  | 
202 (RTCTEWENVVLCWV) [Peptide 202] |  |  |  |  |  | +^1 (Peptide competes with phage binding.) | + (Peptide competes with phage binding.) | + (Peptide competes with phage binding.) | + (Peptide competes with phage binding.) | + (Peptide competes with phage binding.) | − | 
224 (DCSMWEGVELCW) [Peptide 224] | − | − | − | − | − | + (Peptide competes with phage binding.) | + (Peptide competes with phage binding.) | + (Peptide competes with phage binding.) | + (Peptide competes with phage binding.) | + (Peptide competes with phage binding.) | − | 
224 (DCSMWEGVELCW) [compound 224] |  |  |  |  |  |  |  |  |  |  |  | competition for binding to the IL-2Rβ binding site with the group of IL-2Rβ ligands [1]: does not compete
236 (MCWLEWGEWVGSCL) [Peptide 236] |  |  |  |  |  | + (Peptide competes with phage binding.) | + (Peptide competes with phage binding.) | + (Peptide competes with phage binding.) | + (Peptide competes with phage binding.) | + (Peptide competes with phage binding.) | − | 
248 (DLSDLCTFWLSQ) [Peptide 248] |  |  |  |  |  | + (Peptide competes with phage binding.) | + (Peptide competes with phage binding.) | + (Peptide competes with phage binding.) | + (Peptide competes with phage binding.) | + (Peptide competes with phage binding.) | − | 
948 (SLLKCYNASTCASVF) [Peptide 948] |  |  |  |  |  | −^2 | − | − | − | − | + (Peptide competes with phage binding.) | 
948 (SLLKCYNASTCASVF) [compound 948] |  |  |  |  |  |  |  |  |  |  |  | competition for binding to the IL-2Rγc binding site with the group of IL-2Rγc ligands (IL-2Rγc subunit): does not compete
1042 (CYEVGDYCQSPL) [Peptide 1042] | + (Peptide competes with phage binding.) | + (Peptide competes with phage binding.) | + (Peptide competes with phage binding.) | + (Peptide competes with phage binding.) | − |  |  |  |  |  |  | 
1044 (RSCYYKRPRLWCSE) [Peptide 1044] | −^2 | − | − | − | − |  |  |  |  |  |  | 
1044 (RSCYYKRPRLWCSE) [compound 1044] |  |  |  |  |  |  |  |  |  |  |  | competition for binding to the IL-2Rβ binding site with the group of IL-2Rβ ligands [1]: does not compete
Compound A: heterodimer of SEQ. ID. NO: 58 and SEQ ID. NO. 224 (chain 1 YDCRIAQVGELCDL; chain 2 DCSMWEGVELCW; cysteine pairing not given here; also: heterodimer, linkage not given here) |  |  |  |  |  |  |  |  |  |  |  | STAT5 phosphorylation (pSTAT5), Western Blot (NK-92 cells): induced (in a dose-responsive manner) STAT5 phosphorylation
Compound B: heterodimer of SEQ. ID. NO: 58 and SEQ ID. NO. 237 (chain 1 YDCRIAQVGELCDL; chain 2 LCFSEFLGEWVDCN; cysteine pairing not given here; also: heterodimer, linkage not given here) |  |  |  |  |  |  |  |  |  |  |  | STAT5 phosphorylation (pSTAT5), Western Blot (NK-92 cells): induced (in a dose-responsive manner) STAT5 phosphorylation

From US11548914B2, “IL-2Rgamma binding compounds” (MEDIKINE, INC., priority 2018, dated 2023)
